From PMC11584650, “An inhibitory segment within G-patch activators tunes Prp43-ATPase activity during ribosome assembly” (Nature Communications, 2024)

Tests used:
[1] = biological target: His6-Prp43 (S. cerevisiae) (UniProt P53131)
[2] = biological target: His6-Prp43 (S. cerevisiae) (UniProt P53131); remark: listed apart in the source

His6-Prp43 (S. cerevisiae), sequence (P53131 whole entry): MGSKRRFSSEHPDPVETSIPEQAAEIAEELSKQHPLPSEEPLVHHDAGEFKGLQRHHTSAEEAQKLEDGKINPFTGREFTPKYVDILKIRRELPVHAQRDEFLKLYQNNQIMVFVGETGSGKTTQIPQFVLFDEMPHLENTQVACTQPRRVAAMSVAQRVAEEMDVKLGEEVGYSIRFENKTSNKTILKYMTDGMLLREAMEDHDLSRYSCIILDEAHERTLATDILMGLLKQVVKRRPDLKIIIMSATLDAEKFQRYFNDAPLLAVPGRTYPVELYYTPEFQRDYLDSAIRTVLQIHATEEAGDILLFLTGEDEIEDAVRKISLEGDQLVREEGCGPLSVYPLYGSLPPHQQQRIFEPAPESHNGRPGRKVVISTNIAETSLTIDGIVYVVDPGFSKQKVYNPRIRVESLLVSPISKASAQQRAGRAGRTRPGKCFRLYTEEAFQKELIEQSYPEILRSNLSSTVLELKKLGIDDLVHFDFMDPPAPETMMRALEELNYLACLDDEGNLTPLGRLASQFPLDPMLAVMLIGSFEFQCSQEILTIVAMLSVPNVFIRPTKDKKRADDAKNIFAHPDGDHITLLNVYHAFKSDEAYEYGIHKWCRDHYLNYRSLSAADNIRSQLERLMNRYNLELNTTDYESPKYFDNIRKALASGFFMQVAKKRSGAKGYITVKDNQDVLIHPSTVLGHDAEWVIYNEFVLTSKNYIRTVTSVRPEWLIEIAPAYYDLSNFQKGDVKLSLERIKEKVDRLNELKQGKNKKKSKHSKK

Row | ATPase activity of the Prp43-P^G fusion against Prp43 with an equimolar amount of Pxr1^G [1] | stimulation of Prp43 ATPase activity by Tma23^G added at a 1:1 or 10:1 molar ratio (NADH-coupled assay, 2.5 mM ATP) [2] | ATPase activity of the Prp43-T^G fusion against Prp43 with an equimolar amount of Tma23^G [1] | Substance
1 | 2 fold |  |  | GST-Pxr1^G (domain or fragment)
2 |  | 3 fold | 30 fold | GST-Tma23^G (domain or fragment)
